Tests used:
H322 cells = assay: Cleaved active caspase-3 immunostaining of resected H322 tumors; format: in vivo, NMRI nude mice
Protocol: FIG. 3. COMMD2 is required for UNC5B-induced cell death and tumor suppression. (A): Silencing COMMD2 inhibits UNC5B-induced DNA fragmentation. Stable Hela cells inducible for UNC5B were transfected with two distinct siRNA scramble (siCTRL) or targeting COMMD2 (siCOMMD2-1 and -2). Upon treatment for 18 hours with the indicated concentrations of doxycycline (Dox), DNA fragmentation was evaluated through FACS analysis (n=3, **** p<0.0001, Ordinary two-way ANOVA). Values are given as means±SEM. (B, C, D): Tumor growth inhibition driven by netrin-1 interference necessitates UNC5B and COMMD2. NMRI nude mice were engrafted with stable H322 cells, knock-down for luciferase (sgLUC, used as a non-targeting control), UNC5B (sgUNC5B) or COMMD2 (sgCOMMD2), generated with CRISPR-Cas-9-KRAB strategy. Tumors obtained from nude mice engrafted with stable H322 cells were lysed and gene expression was evaluated by quantitative RT-PCR (n=2-3, *p<0.05, Kruskal-Wallis test with Dunn's multiple comparisons test) (B). After tumor volume reached 50 mm^3, mice were intravenously treated three time per week with anti-netrin-1 (NP137) or control (Iso-mAb) antibodies and tumor growth was evaluated (n=10 mice/group, ^nsp>0.05, *p<0.05, Mann-Whitney test, two-tailed) (C). A histogram illustrating tumor volumes at 35 days after first treatment is indicated in (D) (n=10 mice/group, ^nsp>0.05, *p<0.05, *** p<0.001, Kruskal-Wallis test with uncorrected Dunn's test). (E). Silencing of UNC5B and COMMD2 restrains in vivo NP137-induced apoptosis. After sacrificing the mice, tumors were resected and apoptosis was quantified by immunostaining of active cleaved caspase-3. […]
5-week-old female athymic NMRI nude mice were obtained from Janvier Labs (Saint Bertevin, France). […] Tumor size was measured three times per week with a caliper. Tumor volume was calculated according to the formula v=0.5× (l×w2), where v is volume, l is length, and w is width. […]

[1] = human, in vivo; cited from earlier work

B1: NP137: humanized anti-netrin-1 monoclonal antibody, VH SEQ ID NO: 22, VL SEQ ID NO: 16, human IgG1 (antibody, V domains shown)
VH: QVQLQQSGPGLVKPSQTLSLTCAISGYTFTSYNMHWVRQATGQGLEWMGAIYPGNGDTSYNQKFKGRLTISKDTSKNQVVLTMTNMDPVDTATYYCARGGTGFAYWGQG
VL: DIQMTQSPSSLSASVGDRVTITCKASQSVSNDVAWYQQKPGQAPRLLIYYASNRYTGIPPRFSGSGYGTDFTLTINNIESEDAAYYFCQQDYSSPWTFGQG
modifications: human IgG1 constant region; humanized variant; MISC_FEATURE - CDR according to IGMT
For B1, the “percentage of caspase-3 positive cells” value (H322 cells; H322 tumors knocked-out for COMMD2) was “failed to detect a similar increase”, the “percentage of caspase-3 positive cells” value (H322 cells; H322 tumors knocked-out for UNC5B) was “failed to detect a similar increase” and the “apoptosis, cleaved active caspase-3 positive cells” value (H322 cells; control H322 tumors (sgLUC)) was “associated with apoptosis induction”. For the same molecule, the safety profile [1] was “extremely good safety profile”.
